Measurements from PMC8564274 (Signal Transduction and Targeted Therapy, 2021).

Columns and labels:
[1] = molecular target: T1, prefusion-stabilized ectodomain of the SARS-CoV-2 spike (SARS-CoV-2, WH01, stabilised); assay: BLI; conditions: both partners purified
[2] = molecular target: T1, prefusion-stabilized ectodomain of the …; assay: cell-based or functional assay

B1: n3113.1 (VHH)
VHH: EVQLVESGGGLVQPGGSLRLSCAASDSSFYDYEMSWVRQAPGKAQEWIGSMYPSGRTYINPSLKSLVTISRDNSKNTLYLQLNSLRAEDTAMYYCVSNWASGSTGDYWGQGTLVTVSS
[1]
  Kd: 63.8 nM
[2]
  IC50 of neutralisation of SARS-CoV-2 S pseudovirus: 6 µg/mL
